Measurements from paper PMC4200526.

Target: toluene 4-monooxygenase hydroxylase (T4moH), (TmoA-TmoB-TmoE)2, with C-terminally truncated TmoA and TmoE (UniProt Q00456)
Chain of UniProt Q00456 (Q00456 1-491, chain 1 of 3): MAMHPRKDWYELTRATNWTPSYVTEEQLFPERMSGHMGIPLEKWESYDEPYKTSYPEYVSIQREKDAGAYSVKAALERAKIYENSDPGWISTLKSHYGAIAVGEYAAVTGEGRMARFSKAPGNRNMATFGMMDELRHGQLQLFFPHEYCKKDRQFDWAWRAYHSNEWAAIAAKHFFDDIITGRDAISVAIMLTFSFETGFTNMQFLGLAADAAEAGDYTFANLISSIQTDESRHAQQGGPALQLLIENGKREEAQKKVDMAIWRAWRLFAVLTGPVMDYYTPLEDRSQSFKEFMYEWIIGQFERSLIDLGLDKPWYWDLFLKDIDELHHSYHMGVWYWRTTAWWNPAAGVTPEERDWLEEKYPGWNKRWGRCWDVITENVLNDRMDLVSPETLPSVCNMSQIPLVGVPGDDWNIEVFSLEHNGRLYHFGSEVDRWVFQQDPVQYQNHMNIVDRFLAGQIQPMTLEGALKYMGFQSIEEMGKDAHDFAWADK
Chain of UniProt Q00456 (Q00457 whole entry, chain 2 of 3, further chain, the tested form may be a part): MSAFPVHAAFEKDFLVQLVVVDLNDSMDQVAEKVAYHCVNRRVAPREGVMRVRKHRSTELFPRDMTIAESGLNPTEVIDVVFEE
Chain of UniProt Q00456 (Q00460 1-306, chain 3 of 3, further chain): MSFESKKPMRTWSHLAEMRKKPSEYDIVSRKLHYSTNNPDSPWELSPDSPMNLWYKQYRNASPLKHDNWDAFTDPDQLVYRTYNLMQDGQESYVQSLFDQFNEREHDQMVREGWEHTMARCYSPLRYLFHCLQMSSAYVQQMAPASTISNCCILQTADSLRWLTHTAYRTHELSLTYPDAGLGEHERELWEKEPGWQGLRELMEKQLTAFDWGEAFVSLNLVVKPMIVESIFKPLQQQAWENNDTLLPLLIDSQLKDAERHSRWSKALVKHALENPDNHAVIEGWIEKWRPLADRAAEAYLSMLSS

- apparent KM for T4moC in steady-state toluene hydroxylation (4 uM T4moH, 0.4 uM T4moF), before the increase caused by T4moD: 3 µM
- apparent KM for T4moC in steady-state toluene hydroxylation (4 uM T4moH, 0.4 uM T4moF), increased by inhibiting T4moD: 16 µM
Substance: T4moC, Rieske-type ferredoxin of toluene 4-monooxygenase, Cys7Ser/Cys84Ala/Cys85Ala variant (used for 4P1C) (from UniProt Q00458 8-112) (natural protein)
